This note sets out measurements from article PMC4894940, “The function of the two-pore channel TPC1 depends on dimerization of its carboxy-terminal helix” (Cellular and Molecular Life Sciences: CMLS, 2016).

The subject of assay [1] is Myc-tagged C-terminus of TPC1. Briefly: Co-immunoprecipitation of TPC1 C-termini in HEK293T cells. In kind it is binding, Arabidopsis thaliana. The following applies: IP anti-Myc, WB anti-Myc / anti-Flag, 3 independent experiments. The source says: For the Co-IP tests the C-terminally tagged GFP-fusions were used as templates to amplify the soluble C-terminus (amino acids 673–733) of TPC1 or TPC1-3LP fused to GFP with PCR. The constructs were subcloned into the pENTR-D-TOPO vector and afterwards brought into the expression vectors with EcoRI and XhoI (New England Biolabs), so that they were N-terminally tagged either with 6x Myc (pCS2+MT) or with the FLAG-tag (pCS2 + Flag).
HEK293T cells were propagated in DMEM GIBCO Glutamax (Life Technologies) supplemented with 10 % fetal calf serum. Cells were seeded in 6–well plates (20–30 % confluency) and transfected the next day using 10 µl Roti-Fect (Carl Roth) per 2 µg total DNA (1 µg DNA per plasmid). Two days after transfection cells were washed with 2 ml PBS buffer (Life Technologies) and harvested for immunoprecipitation in 150 µl cold lysis buffer (10 mM HEPES, 150 mM NaCl, 1 % Nonidet P40, 5 % glycerol, pH 7,4/KOH) supplemented with protease inhibitors and phosphatase inhibitors (Complete mini EDTA free and PhosStop, Roche). Cells were disrupted mechanically with a syringe (cannula diameter 0.55 mm). The lysate was cleared by centrifugation at 13.500 rpm and 4 °C for 10 min. Total protein concentrations were measured with a bicinchoninic acid protein assay (Applichem), typically the total protein amount was 500–600 µg. Loading controls of 50 µg of the lysate were taken accordingly and filled up to 20 µl with lysis buffer before adding 5 µl of 5x sample buffer (250 mM Tris, 5 % SDS, 25 % glycerol, 0.25 % bromophenol blue, 250 mM β–mercaptoethanol, pH 6.8/HCl) and boiling. For immunoprecipitation, 3 µg of mouse anti-c-Myc Epitope antibody 9E10 (sc-40, Santa Cruz) was used per sample. Samples were incubated with the antibody for 45 min at 4 °C with a rotator, then 10 µl of protein G Dynabeads (Life Technologies) equilibrated in the lysis buffer was added to each sample and incubation continued for another 45 min. Samples were washed three times with cold lysis buffer before eluting three times with 20 µl of 100 mM glycine (pH 2.5/HCl). […]

In assay [2] the test system is slow vacuolar (SV) currents in tpc1-2 vacuoles. In words: Whole-vacuolar patch-clamp of TPC1 variants (SV currents). In kind it is cell-based, Arabidopsis thaliana. The following applies: whole-vacuolar, 1 mM CaCl2, relative to wild type; results section. As to the method:
(§1) Expression of GFP-fusion proteins for electrophysiological measurements or confocal microscopy was performed in A. thaliana tpc1-2 mesophyll protoplasts as described. Briefly, leaves were enzymatically digested to release mesophyll protoplasts, which were then transformed by the polyethylene glycol method. Protoplasts were used for electrophysiological measurements and subcellular localization of GFP fluorescence 2–4 days after transformation.
(§2) Patch-clamp experiments were performed on transformed vacuoles harboring two-pore channels as identified by GFP fluorescence. The pipette (luminal) solution consisted of 100 mM K-gluconate, 2 mM MgCl2, 10 mM EGTA, 10 mM MES, pH 5.5/Tris. The bath (cytosolic) solution contained 50 mM K-gluconate, 1 mM CaCl2, 1 mM MgCl2, 2 mM DTT, 10 mM HEPES, pH 7.5/Tris. Solutions were adjusted to 430 mosmol/kg by adding D-sorbitol. For analysis of the TPC1-S706 mutants two further calcium concentrations of the bath solution were used in which 1 mM CaCl2 was substituted by 0.2 mM or 0.05 mM CaCl2, respectively. Competition assays using the CTH peptide were performed on endogenous TPC1 channels in vacuoles isolated from Col-0 plants. Peptides were dissolved at 10 mM in bath solution supplemented with 1 % DMSO and 0.1 % pluronic, and diluted >600-fold for application in patch-clamp recordings. Currents were recorded either in the whole-vacuolar or cytosolic side-out configuration of the patch-clamp technique, using an EPC10 amplifier and the program PULSE (HEKA electronics, Lambrecht, Germany). Recordings and data analysis were performed as described earlier. Relative open probabilities (P o) were determined from tail currents at −53 mV, following pulses to the different test voltages. Tail currents were normalized to the maximum values at 1 mM Ca^2+, plotted as a function of the applied test voltage, and fitted according to the Boltzmann equation: PO=A/1+exp^zF/RT·(Vo-V) where V o and z are parameters for the voltage at half-maximum open probability and the apparent number of gating charges, respectively, and A describes the maximum conductance that is reached under the experimental conditions.

Assay [3] relates to excised cytosolic side-out vacuolar membrane patches of tpc1-2 cells. Briefly: Excised cytosolic side-out patch recordings of TPC1 variants. In kind it is cell-based, Arabidopsis thaliana. The method, then: as §1, §2
The test system of assay [4] is TPC1 subunits co-expressed in Nicotiana benthamiana leaves. In words: Bimolecular fluorescence complementation (Split Venus BiFC). In kind it is cell-based. The following applies: N. benthamiana leaves, plate reader and confocal. The method, then:
For BiFC analyses the gateway entry vector pENTR-D-TOPO and the destination vectors pDEST–^GWVYCE and pDEST–^GWVYNE were used for C-terminal fusion of the Venus C- and N-terminus, respectively, and pDEST–VYCE(R)^GW and pDEST–VYNE(R)^GW for N-terminal tagging.
BiFC studies were performed as described using a Split Venus system. The Agrobacterium strain C58C1 [42] harboring the plasmid of interest and the helper strain p19 [43] were grown in LB medium supplemented with 100 µg/ml Kanamycin at 29 °C overnight. The cultures were brought to an optical density (OD600) of 1.0 in infiltration buffer (10 mM MES, 10 mM MgCl2, 100 µM acetosyringone, pH 5.7/KOH) and the combinations to test for co-expression mixed at equal amounts. The p19 helper strain (OD600 = 1.0) was added to these mixtures in a 1:1 ratio. Suspensions were incubated for 2 h before infiltration into the abaxial side of 6-week-old N. benthamiana leaves. Each leaf was infiltrated with several plasmid combinations and a positive control (TPC1/pDEST-^GWVYCE and TPC1/pDEST-^GWVYNE) as well as a negative control (p19 alone) at separated areas to monitor comparability of the transient expression and to define background fluorescence.
For fluorescence quantification leaf disks (Ø 6 mm) were cut out of the infiltrated areas with a cork borer 2.5 day after infiltration. Leaf disks were placed upside-down in a black 96-well plate prefilled with 70 µl H2O per well to minimize dehydration effects. Fluorescence was measured with a plate-reader (Infinite F200, Tecan) with an excitation wavelength of 485 ± 20 nm and an emission wavelength of 525 ± 25 nm.

Assay [5] relates to tonoplast. In words: Confocal localization of GFP-fusions in tpc1-2 mesophyll protoplasts. In kind it is cell-based, Arabidopsis thaliana. The following applies: GFP-fusion in tpc1-2 mesophyll protoplasts. The method, then:
as §1
Fluorescence signals were detected and documented with a TCS SP2 confocal laser scanning microscope and the Leica Confocal Software (Leica Microsystems). A 488 nm Argon laser was used for excitation of GFP and of the auto-fluorescence of chlorophyll. GFP-signals were detected from 500 to 556 nm and chlorophyll signals from 675 to 767 nm. Venus was excited with a […] and detected in the range from 520 to 556 nm, the corresponding chlorophyll signals were detected from 637 to 736 nm. Images were processed with Photoshop (Adobe Systems).

Substitutions are numbered along the chain they refer to.

B1: TPC1 C-terminus: soluble C-terminus (residues 673–732) of wild type TPC1, N-terminally 6xMyc- or FLAG-tagged, C-terminal GFP fusion (protein)
chain: EAFFTELDLEEEEKCQGQDSQEKRNRRRSAGSKSRSQRVDTLLHHMLGDELSKPECSTSDT-eGFP
modifications: not fully specified (N-terminus); also: N-terminal 6xMyc or FLAG tag
notes: soluble C-terminus (residues 673–732) of wild type TPC1, N-terminally 6xMyc- or FLAG-tagged, C-terminal GFP fusion
Take B1: in assay [1], the “Co-IP of C-termini” value is “bound to itself”.

B2: TPC1-3LP: substitution of three leucines (L714, 715, and 719) by prolines (protein, UniProt Q94KI8 1-733, looked up, variant L714P L715P L719P)
Two pore calcium channel …: MEDPLIGRDSLGGGGTDRVRRSEAITHGTPFQKAAALVDLAEDGIGLPVEILDQSSFGESARYYFIFTRLDLIWSLNYFALLFLNFFEQPLWCEKNPKPSCKDRDYYYLGELPYLTNAESIIYEVITLAILLVHTFFPISYEGSRIFWTSRLNLVKVACVVILFVDVLVDFLYLSPLAFDFLPFRIAPYVRVIIFILSIRELRDTLVLLSGMLGTYLNILALWMLFLLFASWIAFVMFEDTQQGLTVFTSYGATLYQMFILFTTSNNPDVWIPAYKSSRWSSVFFVLYVLIGVYFVTNLILAVVYDSFKEQLAKQVSGMDQMKRRMLEKAFGLIDSDKNGEIDKNQCIKLFEQLTNYRTLPKISKEEFGLIFDELDDTRDFKINKDEFADLCQAIALRFQKEEVPSLFEHFPQIYHSALSQQLRAFVRSPNFGYAISFILIINFIAVVVETTLDIEESSAQKPWQVAEFVFGWIYVLEMALKIYTYGFENYWREGANRFDFLVTWVIVIGETATFITPDENTFFSNGEWIRYLLLARMLRLIRLLMNVQRYRAFIATFITLIPSLMPYLGTIFCVLCIYCSIGVQVFGGLVNAGNKKLFETELAEDDYLLFNFNDYPNGMVTLFNLLVMGNWQVWMESYKDLTGTWWSITYFVSFYVITILLLLNLVVAFVLEAFFTELDLEEEEKCQGQDSQEKRNRRRSAGSKSRSQRVDTPPHHMPGDELSKPECSTSDT
modifications: C-terminal GFP
notes: substitution of three leucines (L714, 715, and 719) by prolines
With B2, the “residual whole-vacuolar current amplitude (% of wild type amplitude)” value in assay [2] is recorded as “about 7%”. Further, the “macroscopic currents in excised patches” value in assay [3] (excised patches, tpc1-2 cells) is “no macroscopic currents were resolved”. In addition, the “BiFC signal” value in assay [4] is on record as “reduced compared to the wild type”.

B3: N-terminally tagged TPC1: TPC1 subunits N-terminally tagged with Venus halves (BiFC) or GFP (localization) (protein)
chain: B2 Two pore calcium channel … with P714L, P715L, P719L
modifications: left off: Venus C-terminal half (VC, one copy) or Venus N-terminal half (VN, the other copy), N-terminal, kept
As for B3, the “BiFC signal” value in assay [4] was “did not result in Venus-fluorescence”. Moreover, the “subcellular localization of GFP-fusion” value in assay [5] is on record as “tonoplast localization”.

B4: TPC1: wild type Arabidopsis two-pore channel TPC1 expressed as GFP-fusion in tpc1-2 background (protein)
chain: B2 Two pore calcium channel … with P714L, P715L, P719L
modifications: left off: Venus C-terminal half (VC, one copy) or Venus N-terminal half (VN, the other copy), C-terminal, kept
notes: wild type Arabidopsis two-pore channel TPC1 expressed as GFP-fusion in tpc1-2 background
For the molecule B4, in assay [3] (at 107 mV, Ca2+ reduced from 1 mM to 200 µM (n = 3–7)), the “current remaining following reduction of Ca2+ from 1 mM to 200 µM” value was 53 ± 10%. For the same molecule, the “BiFC signal” value in assay [4] is reported as “BiFC signals from wild type channels could be observed”.

B5: C-terminus of the TPC1-3LP-mutant: soluble C-terminus of TPC1-3LP, N-terminally 6xMyc- or FLAG-tagged, C-terminal GFP fusion (protein)
chain: EAFFTELDLEEEEKCQGQDSQEKRNRRRSAGSKSRSQRVDTPPHHMPGDELSKPECSTSDT-eGFP
modifications: not fully specified (N-terminus); also: N-terminally 6xMyc- or FLAG-tagged
notes: soluble C-terminus of TPC1-3LP, N-terminally 6xMyc- or FLAG-tagged, C-terminal GFP fusion
On to B5, for which the results for the “Co-IP of C-termini” value in assay [1] and in assay [1] (listed as 3LP-Flag-Ct) were “reduced ability to dimerize” and “visibly weaker interaction of the two C-termini”, respectively.
